Experimental data as given in PMC2873289, “A Helix Replacement Mechanism Directs Metavinculin Functions” (PLoS ONE, 2010).

Assays:
[1] = target: the molecule itself; assay: band on SDS-PAGE of the pull-down eluate, identified by Western blot; band seen in the lanes where GST-Vt and PIP2 are present
[2] = target: T1, metavinculin-ΔH1ΔH1′ (lacking residues 895–915 and 963–983) (human, UniProt P18206 1-1134, lacking residues 895–915 | lacking residues 963–983); assay: pull-down; GST-Vt (0.5 µM) on GST-Sepharose beads, with or without pre-incubation with 5 µM PIP2; 15 µM His8-tagged metavinculin or deletion mutant pre-activated with talin-VBS3, 1 hr 37°C; 20 mM Tris-HCl pH 8, 150 mM NaCl; eluted with glutathione, SDS-PAGE, Western blot; conditions: both partners purified
T1 construct: human metavinculin, full length (1-1,134) lacking residues 895-915 (H1) and 963-983 (H1′); source: E. coli BL21-DE3, purified (as full-length metavinculin); not shown: His8, N-terminal, kept
T1 sequence (looked up): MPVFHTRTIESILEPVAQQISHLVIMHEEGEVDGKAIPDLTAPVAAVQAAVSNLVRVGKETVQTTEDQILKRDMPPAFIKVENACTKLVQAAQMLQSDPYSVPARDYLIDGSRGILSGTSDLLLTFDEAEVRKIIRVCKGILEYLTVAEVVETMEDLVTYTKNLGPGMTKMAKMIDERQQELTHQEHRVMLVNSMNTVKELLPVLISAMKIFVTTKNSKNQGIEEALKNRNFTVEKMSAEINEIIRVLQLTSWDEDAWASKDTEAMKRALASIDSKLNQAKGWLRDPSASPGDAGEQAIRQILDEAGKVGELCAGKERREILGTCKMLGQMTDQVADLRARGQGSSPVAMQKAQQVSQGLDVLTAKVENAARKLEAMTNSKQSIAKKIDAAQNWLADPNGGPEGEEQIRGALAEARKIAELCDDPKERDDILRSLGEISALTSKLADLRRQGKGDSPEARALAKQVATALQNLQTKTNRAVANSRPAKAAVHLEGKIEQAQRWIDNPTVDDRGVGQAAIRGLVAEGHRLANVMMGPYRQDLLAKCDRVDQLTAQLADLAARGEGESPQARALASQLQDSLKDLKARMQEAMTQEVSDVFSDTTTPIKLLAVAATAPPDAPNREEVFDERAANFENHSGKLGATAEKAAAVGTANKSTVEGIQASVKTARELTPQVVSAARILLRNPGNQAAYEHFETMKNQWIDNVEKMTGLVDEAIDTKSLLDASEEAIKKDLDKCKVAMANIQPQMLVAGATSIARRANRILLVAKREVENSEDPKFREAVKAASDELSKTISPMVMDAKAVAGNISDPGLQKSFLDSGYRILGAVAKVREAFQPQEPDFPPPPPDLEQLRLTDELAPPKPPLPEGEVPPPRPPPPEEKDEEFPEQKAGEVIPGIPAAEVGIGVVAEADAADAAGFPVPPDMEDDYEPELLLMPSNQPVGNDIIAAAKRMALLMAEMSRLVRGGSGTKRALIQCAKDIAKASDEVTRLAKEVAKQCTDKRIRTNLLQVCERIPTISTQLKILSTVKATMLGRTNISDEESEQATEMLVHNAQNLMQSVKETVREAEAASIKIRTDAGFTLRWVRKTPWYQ

[3] = target: T2, metavinculin-ΔH1′ (lacking residues 963–983) (human, UniProt P18206 1-1134, lacking residues 963–983); assay: as above; conditions: both partners purified
T2 construct: human metavinculin, full length (1-1,134) lacking residues 963-983 (α-helix H1′): 1-962 joined to 984-1,134; also called MV-ΔH1′; source: E. coli BL21-DE3, purified (as full-length metavinculin); not shown: His8, N-terminal, kept
T2 sequence (looked up): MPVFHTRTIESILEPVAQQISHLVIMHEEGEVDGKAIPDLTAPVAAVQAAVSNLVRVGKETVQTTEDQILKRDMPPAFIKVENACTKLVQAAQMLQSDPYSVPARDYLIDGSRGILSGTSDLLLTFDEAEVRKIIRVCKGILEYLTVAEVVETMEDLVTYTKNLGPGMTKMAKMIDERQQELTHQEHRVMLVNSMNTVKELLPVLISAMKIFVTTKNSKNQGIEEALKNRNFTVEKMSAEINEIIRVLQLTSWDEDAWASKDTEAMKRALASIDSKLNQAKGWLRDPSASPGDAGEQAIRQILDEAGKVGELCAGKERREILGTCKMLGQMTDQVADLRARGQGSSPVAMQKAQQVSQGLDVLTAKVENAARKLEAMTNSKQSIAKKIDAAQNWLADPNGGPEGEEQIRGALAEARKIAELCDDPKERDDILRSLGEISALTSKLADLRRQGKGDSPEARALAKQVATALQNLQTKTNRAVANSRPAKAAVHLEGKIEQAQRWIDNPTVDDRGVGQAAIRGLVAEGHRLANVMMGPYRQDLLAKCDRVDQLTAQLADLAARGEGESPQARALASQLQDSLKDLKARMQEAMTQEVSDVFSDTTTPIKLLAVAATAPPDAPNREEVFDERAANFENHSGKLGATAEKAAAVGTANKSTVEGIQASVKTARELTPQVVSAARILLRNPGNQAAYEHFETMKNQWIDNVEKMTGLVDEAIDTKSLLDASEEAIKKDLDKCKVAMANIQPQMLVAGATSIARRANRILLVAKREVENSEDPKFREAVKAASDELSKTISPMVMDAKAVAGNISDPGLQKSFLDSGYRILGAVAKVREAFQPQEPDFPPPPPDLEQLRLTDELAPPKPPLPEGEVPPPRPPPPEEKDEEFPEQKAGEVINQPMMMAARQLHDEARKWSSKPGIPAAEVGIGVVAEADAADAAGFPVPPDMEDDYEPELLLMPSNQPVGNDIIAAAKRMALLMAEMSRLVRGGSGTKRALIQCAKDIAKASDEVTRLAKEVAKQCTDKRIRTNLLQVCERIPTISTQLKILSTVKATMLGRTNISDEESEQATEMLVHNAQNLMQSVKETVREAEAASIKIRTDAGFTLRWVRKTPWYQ

- binding result [2]: binds
- binding result [3]: binds
B1: GST tagged vinculin tail domain (GST-Vt; residues 879–1,066) (domain or fragment, human, UniProt P18206-2 879-1066, looked up)
chain: EEKDEEFPEQKAGEVINQPMMMAARQLHDEARKWSSKGNDIIAAAKRMALLMAEMSRLVRGGSGTKRALIQCAKDIAKASDEVTRLAKEVAKQCTDKRIRTNLLQVCERIPTISTQLKILSTVKATMLGRTNISDEESEQATEMLVHNAQNLMQSVKETVREAEAASIKIRTDAGFTLRWVRKTPWYQ
notes: human vinculin tail domain, residues 879-1,066 of vinculin (1,066-residue isoform), cloned in pGEX-4T-1; source: E. coli BL21-DE3, purified (GSTrap FF, Superdex 75)
- stoichiometry N [1]: 2
